Reference: paper PMC3777412
pKd: −log10 of the molar value.

Tests used:
pY542 peptide (human) = experiment: SPR
pY580 peptide (human) = experiment: SPR

“C-SH2 domain of Shp2, histidine-tagged (domain or fragment)” gave a pKd (pY542 peptide (human)) of 4.82 and a pKd (pY580 peptide (human)) of 3.53.
